The target in series [1] is T1, TFIIIC subcomplex τA (τ131, τ95, τ55) (S. cerevisiae, UniProt P33339 1-1025; P32367 1-649; Q12415 1-435).
T1 construct: τ131, subunit of S. cerevisiae TFIIIC subcomplex τA; insect cell codon-optimized gene; τ95, subunit of S. cerevisiae TFIIIC subcomplex τA; τ55, subunit of S. cerevisiae TFIIIC subcomplex τA; No TEV cleavage of the his-tag is described in the purification; also called wt τA; full-length τA; source: Hi5 insect cells, subunits co-expressed by baculovirus, purified (Ni-NTA, heparin, MonoQ, Superose …)
In words: co-sedimentation; 10–30% glycerol gradient without crosslinker, equimolar τA and Brf1–TBPΔN, 75 mM NaCl at mixing, 100 mM NaCl, 20 mM HEPES pH 7.5, 5 mM DTT in the gradient, 16 h at 150,000 x g; fractions on SDS–PAGE, silver stain; apparent stoichiometry. As to conditions: both partners purified.

Series [2] addresses holo-TFIIIC Δtail (τ95Δtail) (Saccharomyces cerevisiae, UniProt P33339;P32367;Q12415;P34111;Q06339;Q12308 1-1025;1-592;1-435;1-1160;1-672;1-588). In words: EMSA; 0.5 uM DNA; tail deletion has only a mild effect; τA EMSA: 100 mM NaCl, 20 mM HEPES pH 7.5, 5 mM DTT, 1 h on ice, 10% glycerol added before loading; TFIIIC EMSA: 1 h on ice, buffer not restated; 3-8% Tris-acetate gel in 2.5 mM Tris base, 19 mM glycine, 1 mM DTT. As to conditions: protein: recombinant; tags: N-terminal TEV-cleavable His tag on τ95; C-terminal TEV-cleavable TwinStrep on τ138; copies: 1;1;1;1;1;1; label: 6FAM at 3' end of non-template strand.

Series [3] has as its target τA Δtail (τ95Δtail) (Saccharomyces cerevisiae, UniProt P33339;P32367;Q12415 1-1025;1-592;1-435). In words: EMSA; 1-10 uM protein, 1 uM DNA; much stronger than wt and stronger than Δplug; τA EMSA: 100 mM NaCl, 20 mM HEPES pH 7.5, 5 mM DTT, 1 h on ice, 10% glycerol added before loading; TFIIIC EMSA: 1 h on ice, buffer not restated; 3-8% Tris-acetate gel in 2.5 mM Tris base, 19 mM glycine, 1 mM DTT. As to conditions: protein: recombinant; tags: N-terminal TEV-cleavable His tag on τ95; copies: 1;1;1; label: 6FAM at 3' end of non-template strand.

In series [4] the target is τA Δplug (τ95Δplug) (Saccharomyces cerevisiae, UniProt P33339;P32367;Q12415 1-1025;1-521;1-435). In words: EMSA; 1-10 uM protein, 1 uM DNA; much stronger than wt, weaker than Δtail; τA EMSA: 100 mM NaCl, 20 mM HEPES pH 7.5, 5 mM DTT, 1 h on ice, 10% glycerol added before loading; TFIIIC EMSA: 1 h on ice, buffer not restated; 3-8% Tris-acetate gel in 2.5 mM Tris base, 19 mM glycine, 1 mM DTT. As to conditions: protein: recombinant; tags: N-terminal TEV-cleavable His tag on τ95; copies: 1;1;1; label: 6FAM at 3' end of non-template strand. Background: Mobility shift assays separate free from complexed probe on a gel.
Chain of τA Δplug (τ95Δplug) (P33339 whole entry, stated change not applied, chain 1 of 3): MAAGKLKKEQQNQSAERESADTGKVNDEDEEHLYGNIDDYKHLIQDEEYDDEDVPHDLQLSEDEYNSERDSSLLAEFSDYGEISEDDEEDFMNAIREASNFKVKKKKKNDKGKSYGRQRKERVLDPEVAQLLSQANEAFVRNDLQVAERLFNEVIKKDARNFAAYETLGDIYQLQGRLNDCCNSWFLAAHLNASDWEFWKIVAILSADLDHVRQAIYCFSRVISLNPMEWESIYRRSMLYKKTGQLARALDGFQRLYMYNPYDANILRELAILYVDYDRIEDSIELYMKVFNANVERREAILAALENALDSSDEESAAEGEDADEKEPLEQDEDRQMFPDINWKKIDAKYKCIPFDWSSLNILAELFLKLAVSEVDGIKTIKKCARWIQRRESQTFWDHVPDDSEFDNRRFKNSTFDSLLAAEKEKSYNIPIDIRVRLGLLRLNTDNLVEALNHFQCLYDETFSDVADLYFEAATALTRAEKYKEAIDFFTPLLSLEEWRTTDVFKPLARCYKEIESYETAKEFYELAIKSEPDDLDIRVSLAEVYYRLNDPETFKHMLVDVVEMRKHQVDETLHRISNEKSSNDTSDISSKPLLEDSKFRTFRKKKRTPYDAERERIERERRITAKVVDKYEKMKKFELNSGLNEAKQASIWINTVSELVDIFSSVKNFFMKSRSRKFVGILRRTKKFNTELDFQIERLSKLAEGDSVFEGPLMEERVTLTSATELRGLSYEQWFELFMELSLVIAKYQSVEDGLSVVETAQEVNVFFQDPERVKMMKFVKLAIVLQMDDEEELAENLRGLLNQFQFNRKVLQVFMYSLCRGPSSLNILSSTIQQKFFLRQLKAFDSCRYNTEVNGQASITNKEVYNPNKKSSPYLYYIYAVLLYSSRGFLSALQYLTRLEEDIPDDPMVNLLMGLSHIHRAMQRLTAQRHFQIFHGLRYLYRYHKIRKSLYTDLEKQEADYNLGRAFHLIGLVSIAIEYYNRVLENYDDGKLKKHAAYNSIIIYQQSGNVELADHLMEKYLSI
Chain of τA Δplug (τ95Δplug) (P32367 1-521, stated change not applied, chain 2 of 3): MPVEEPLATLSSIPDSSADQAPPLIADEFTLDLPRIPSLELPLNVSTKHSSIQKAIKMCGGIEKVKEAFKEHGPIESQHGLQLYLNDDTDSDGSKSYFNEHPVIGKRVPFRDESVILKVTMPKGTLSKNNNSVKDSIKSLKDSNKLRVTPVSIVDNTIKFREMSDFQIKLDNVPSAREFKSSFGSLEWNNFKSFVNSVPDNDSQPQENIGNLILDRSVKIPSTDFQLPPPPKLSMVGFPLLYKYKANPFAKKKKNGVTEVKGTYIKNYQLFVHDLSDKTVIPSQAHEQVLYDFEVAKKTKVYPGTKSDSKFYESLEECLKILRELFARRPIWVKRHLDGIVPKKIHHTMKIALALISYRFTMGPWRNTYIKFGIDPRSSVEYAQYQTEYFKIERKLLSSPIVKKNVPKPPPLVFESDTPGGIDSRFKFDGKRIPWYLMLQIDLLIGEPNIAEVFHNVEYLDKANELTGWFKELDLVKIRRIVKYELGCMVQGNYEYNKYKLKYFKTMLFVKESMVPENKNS
Chain of τA Δplug (τ95Δplug) (Q12415 whole entry, stated change not applied, chain 3 of 3): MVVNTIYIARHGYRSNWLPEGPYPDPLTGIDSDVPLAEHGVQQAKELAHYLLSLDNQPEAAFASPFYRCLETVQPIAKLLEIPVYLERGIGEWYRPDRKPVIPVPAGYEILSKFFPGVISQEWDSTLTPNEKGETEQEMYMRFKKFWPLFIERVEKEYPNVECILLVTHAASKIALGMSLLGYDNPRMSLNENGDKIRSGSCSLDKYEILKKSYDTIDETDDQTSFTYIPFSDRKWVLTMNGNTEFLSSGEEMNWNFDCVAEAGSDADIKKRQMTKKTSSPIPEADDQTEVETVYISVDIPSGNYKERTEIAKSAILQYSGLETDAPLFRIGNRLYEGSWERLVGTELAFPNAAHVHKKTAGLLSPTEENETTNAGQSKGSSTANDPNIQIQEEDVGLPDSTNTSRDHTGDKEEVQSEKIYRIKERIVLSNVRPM

Chain of τA Δtail (τ95Δtail) (P33339 whole entry, stated change not applied, chain 1 of 3): as the sequence (P33339 whole entry, stated change not applied, chain 1 of 3) above
Chain of τA Δtail (τ95Δtail) (P32367 1-592, stated change not applied, chain 2 of 3): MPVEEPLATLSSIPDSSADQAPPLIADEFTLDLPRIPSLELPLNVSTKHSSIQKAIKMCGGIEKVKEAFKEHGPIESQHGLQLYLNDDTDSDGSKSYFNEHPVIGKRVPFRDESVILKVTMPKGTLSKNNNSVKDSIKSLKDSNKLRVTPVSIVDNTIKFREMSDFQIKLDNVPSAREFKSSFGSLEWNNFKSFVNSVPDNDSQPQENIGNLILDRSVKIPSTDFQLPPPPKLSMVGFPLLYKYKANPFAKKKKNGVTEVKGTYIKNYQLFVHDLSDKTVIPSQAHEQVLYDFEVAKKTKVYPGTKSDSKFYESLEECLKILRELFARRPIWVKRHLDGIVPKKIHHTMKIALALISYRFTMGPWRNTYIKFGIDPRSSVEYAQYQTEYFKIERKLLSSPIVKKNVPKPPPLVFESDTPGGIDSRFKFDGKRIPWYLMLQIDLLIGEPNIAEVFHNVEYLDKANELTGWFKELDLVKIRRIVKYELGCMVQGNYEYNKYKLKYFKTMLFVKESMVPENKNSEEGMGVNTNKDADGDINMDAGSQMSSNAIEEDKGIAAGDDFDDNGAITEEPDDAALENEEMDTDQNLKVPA
Chain of τA Δtail (τ95Δtail) (Q12415 whole entry, stated change not applied, chain 3 of 3): as the sequence (Q12415 whole entry, stated change not applied, chain 3 of 3) above
T1 sequence (P33339 whole entry, chain 1 of 3): as the sequence (P33339 whole entry, stated change not applied, chain 1 of 3) above
T1 sequence (P32367 whole entry, chain 2 of 3): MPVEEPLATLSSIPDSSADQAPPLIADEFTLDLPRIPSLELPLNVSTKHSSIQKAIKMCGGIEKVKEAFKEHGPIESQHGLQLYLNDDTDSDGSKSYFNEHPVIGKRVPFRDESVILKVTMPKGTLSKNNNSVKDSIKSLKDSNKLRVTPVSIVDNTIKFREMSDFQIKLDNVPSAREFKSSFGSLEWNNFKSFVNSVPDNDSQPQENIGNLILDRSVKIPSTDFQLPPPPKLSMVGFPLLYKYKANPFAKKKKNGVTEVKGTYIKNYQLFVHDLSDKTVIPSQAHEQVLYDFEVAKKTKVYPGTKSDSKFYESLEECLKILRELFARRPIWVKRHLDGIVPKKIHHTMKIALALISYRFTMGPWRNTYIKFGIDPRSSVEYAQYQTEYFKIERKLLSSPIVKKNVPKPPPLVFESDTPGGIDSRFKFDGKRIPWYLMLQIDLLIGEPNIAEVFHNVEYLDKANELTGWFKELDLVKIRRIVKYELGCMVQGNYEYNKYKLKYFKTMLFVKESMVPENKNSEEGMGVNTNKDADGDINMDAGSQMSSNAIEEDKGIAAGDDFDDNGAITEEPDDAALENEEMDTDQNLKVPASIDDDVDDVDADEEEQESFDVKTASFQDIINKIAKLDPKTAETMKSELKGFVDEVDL
T1 sequence (Q12415 whole entry, chain 3 of 3): as the sequence (Q12415 whole entry, stated change not applied, chain 3 of 3) above

B1: Brf1–TBP construct lacking the first 70 amino acids (Zn-ribbon and linker) (other)
chain: SALESREATLNNARRKLRAVSYALHIPEYITDAAFQWYKLALANNFVQGRRSQNVIASCLYVACRKEKTHHMLIDFSSRLQVSVYSIGATFLKMVKKLHITELPLADPSLFIQHFAEKLDLADKKIKVVKDAVKLAQRMSKDWMFEGRRPAGIAGACILLACRMNNLRRTHTEIVAVSHVAEETLQQRLNEFKNTKAAKLSVQKFRENDVEDGEARPPSFVKNRKKERKIKDSLDKEEMFQTSEEALNKNPILTQVLGEQELSSKEVLFYLKQFSERRARVVERIKATNGIDGENIYHEGSENETRKRKLSESGIVPTLQNIVATVTLGCRLDLKTVALHARNAEYNPKRFAAVIMRIREPKTTALIFASGKMVVTGAKSEDDSKLASRKYARIIQKIGFAAKFTDFKIQNIVGSCDVKFPIRLEGLAFSHGTFSSYEPELFPGLIYRMVKPKIVLLIFVSGKIVLTGAKQREEIYQAFEAIYPVLSEFRKMPRNLHLLPTTDTYLSKVSDDPDNLEDVDDEELNAHLLNEEASKLKERIWIGLNADFLLEQESKRLKQEADIATGNTSVKKKRTRRRNNTRSDEPTKTVDAAAAIGLMSDLQDKSGLHAALKAAEESGDFTTADSVKNMLQKASFSKKINYDAIDGLFR
As for B1, in series [1], the stoichiometry N (in general, a count of units in the complex or per binding partner) is 1.

B2: His_Abox_Bbox (dsDNA)
DNA 1: CATCTTAGTATAGTGGTTAGTACACATCGTTGTGGCCGATGAAACCCTGGTTCGATTCTAGG
DNA 2: CCTAGAATCGAACCAGGGTTTCATCGGCCACAACGATGTGTACTAACCACTATACTAAGATG
Turning to B2, the binding result in series [2] is “binds”.

B3: His_Abox (dsDNA)
DNA 1: CATCTTAGTATAGTGGTTAGT
DNA 2: ACTAACCACTATACTAAGATG
With B3, the binding result in series [3] and in series [4] was “binds” in each case.

Values taken from article PMC7528018, “Structure of the TFIIIC subcomplex τA provides insights into RNA polymerase III pre-initiation complex formation” (Nature Communications, 2020).
